Measurements from the DeepSol protein solubility set.

Assay: soluble on expression in E. coli; label from the status in PepcDB or PDB records

Sequence	soluble on expression in E. coli
MSHPALTQLRALRYFDAIPALEPHLLDWLLLEDSMTKRFEQQGKRVSVTLIREAFVGQSEVEEASGLLPSESRYWLREILLCADGEPWLAGRTVVPESTLCGPEQVLQHLGKTPLGRYLFTSSTLTRDFIEIGRDATLWGRRSRLRLSGKPLLLTELFLPASPLY	not soluble
MGSDKIHHHHHHMKLRSWEFYDRIARAYDSMYETPKWKLYHRLIGSFLEEYLKNPCRVLDLGGGTGKWSLFLQERGFEVVLVDPSKEMLEVAREKGVKNVVEAKAEDLPFPSGAFEAVLALGDVLSYVENKDKAFSEIRRVLVPDGLLIATVDNFYTFLQQMIEKDAWDQITRFLKTQTTSVGTTLFSFNSYAFKPEDLDSLEGFETVDIRGIGVMEYPDERISEREETIFRLEQELSRDRNIIWKADHIFFVLKKKRGA	soluble
MMPPLTKIEVLAKRVMEGAQLKTHKYFRIAVPHAITGQQLIALVLERGAPDDEAEASHLASLLLHHGYMFPVIEHGQPFKDDGTLYRLQRPYFWPSQAELVPDVEYAIYLNKRLLRNEQKHGLEEDEVESFNRLADVLAHMWAFIVQQSELQLKQQKEKKKVDKVVFDSEERAFWKIRKPSRGGPNFLEDPYMKIEKKIRRQNAQGYRCLMDRLRFAIKTKPWLKALKASDTMVTWVDQRAEFDPFLHPPQPSNPWISDEASFWNQPTDTSSAEIPTEKRVKRWGLSVQELVKDPIGRQVLETFLESEFSSENIRFWIAIQDLKYAPNEQIYQKAERIREEFLAQGAPAQVNVDNRTLDQTLECISKAKDASQMRFAFYHSEEHVFTLMAKDSYPRFVRSQIYKAVLTAAQQHGTKRLGWRNFVFNMGTTKKPATSKPAKPQDSIGTGQVLPKQLSSDSLPVRQAHGVKPDPE	not soluble
MRGYLGKAQQNALINEAQSYPLTRPQIQVFGRYHAIPRQQVWYGDLGCDYLYSGLFIRALPWPKYLQKLRDKLQRDFELGSNGVLVNRYADGQDCMGAHSDDEPEIAHGSDIASISLGATRDFVIKHKHSKQKCCISLHSGDLLIMHWPMQRDWLHSVPKRLKVTEPRWNYTFRQLVVNYHGLEHHHHHH	not soluble
MGSDKIHHHHHHMANSHDGNAQVLSYPKHPPKDFSDLAATLIRNGLGRVDAETLERHLEQVGYFRLKGYWYQFLSPSSSCDYKHVLPFRKGTQFQQIWCRYIFDQELRTLVFDGIITFEIYLKSFLAHELSLFGGEFGYTKPEGLPELSFDDYLACINSLRASFTKSNLPYLKHFKRTYKDPLPPYWMIVGCLSYGTLKGYFYQGSPDSVKRKLAAKLHIFNPNTNPEVHGDIKILSNWLETIRQVRNMVAHHDRFWNETSTRIVPKLPKHRSGLHANEWWGNDWDAFRTDSTGPAAFLTMENYLLQQIDGSAWKNKFISLMDRYPEILATEMGFPEDWRSLALWS	not soluble
GSHMASMTGGQQMGRGSMKFSFELAVNTKKEDAWTYYSQVNQWFVWEGDLEQISLEGEFTTGQKGKMKMEDMPELAFTLVEVRENQCFSDLTATPFGNVLFEHEILENPDGTISLRHSVSLTDSDTTEEALAFLKQIFADVPESVGKLKQILETV	soluble
MKVEGRCHCGAIAYEAEVEPGTITVCHCADCQMQSGSVFRANISAPADTFVLLQGTPKEYLKIAASGARRMHAFCGNCGGPIYSCAAENPQSYSLRVGALEQRHALGRPLRQIWARRRFSWLSSLGDVEEFDGQP	not soluble
MGSDKIHHHHHHMNLKTTLFNTTYKFKDIKDVLAKANEKKSGDEMAGIAASGARERVAAKTVLADITLEELRNNPVVSYEKDEITRVIQDSVDEEQYKKIKALTVGEFREFLLENDEDKIKEIRDGLTSEMIAAVTKLMSNMDLVYAAQKICNTAKCNTTIGRRGTFSSRLQPNHPTDNPQGIMASLIDGISYGVGDAVIGLNPVADTIESVSDVLKVFNDFTRKWRIPTQNCVLAHITTQMEALKNGVPIDLMFQSIAGSEIANKDFGISVALLDEAYELMKTKKSSKGPNFMYFETGQGTELSSEGNNRADQLVMEARCYGLAKRYKPFLVNTVVGFIGPEYLYDGKQVIRAGLEDHFMGKLTGLSMGVDTCYTNHMKADQNDLENLAMLLLAANCNYLMGIPCGDDVMLMYQSSSYHDIATLREISDKRPIKEFEKRMEELGIMKNGKLTRNAGDPSIFM	not soluble
MISVFDIFKVGIGPSSSHTVGPMKAAKQFVDELSEHKLLAKTDRLVADVYGSLSLTGRGHSTDIAIVMGLMGYLPDNVDIERIDSVIQQVKQEHKLVLAEANPAETKIIDFDFYNDMPFHSTFLARHENGMTLKAFAGETLLYEKTFYSIGGGFIVDDEHFEQ	not soluble
MGSDKIHHHHHHMSSFSLDFSLGTFQPLAAKMRPQTLKQYCGQEHLIGAGKPLYKAIENGHIHSMIFWGPPGTGKTTLAEIIAQQIHAQVERISAVTAGVKEIRESIERAKQNRLMGQQTILFVDEVHRFNKTQQDAFLPHIENGTIIFIGATTENPSFELNNALLSRVKVYILKPLTTSNIVTVLQNAIQDAEQGLGKERLIFAENVLETLAEYVNGDARLALNCLELMVDMADETEKGKLINHHLLTEVLGERQARFDKQGDRFYDLISALHKSIRGSAPDAALYWYARIITAGGDPLYVARRLLAIASEDVGNADPRAMQVALAAWDCFTRVGAAEGERAIAQAIVYLAVAPKSNAVYVAFKQAKKLAKEMPDYDVPVHLRNAPTHLMKELGYGAEYRYAHDEPNAYAAGEIYFPEELKNTKFYFPTDRGLEIQLKEKLARLHNLDEQSTKKRYK	not soluble
MNLFFDTELGKQQNKATHKIRVMSEAWLEKNGYCPCCGSKPMQRFANNKPVADLFCPNCHEQYELKSKNQKTIGNSVPDGAYHTMLERIRSDTNPNFFFLAYKKADYSIRQLVLVPKHFITPDMIIPRNKGIKNRPNHIMCSINLAPLPESGKIFLIDNSRIIEPETVLKKWQSNLFLRNQNAERKGWLLAVMKCIDQLPEEFTLSQMYEFENKLSIQFPQNNHIRDKIRQQLQILRDQNTIEFIGRGLYKKS	not soluble
MGSDKIHHHHHHMSSGLYLYGIFPDPIPETVTLQGLDSQLVYSQIIDGFTFLYSEAKQEKYLASRRNLISHEKVLEQAMHAGFRTLLPLRFGLVVKNWETVVTQLLQPYKAQLRELFQKLAGRREVSVKIFWDSKAELQAMMDSHQDLKQKRDQMEGKALSMEEVIHIGQLIESNLLSRKESIIQVFFDELKPLADEVIESDPMTEDMIYNAAFLIPWENESIFSQQVESIDHKFDERLRIRYNNFTAPYTFAQIS	not soluble
AAIGSCSKEYRVLLGQLQKQTDLMQDTSRLLDPYIRIQGLDVPKLREHCRERPGAFPSEETLRGLGRRGFLQTLNATLGCVLHRLADLEQRLPKAQDLERSGLNIEDLEKLQMARPNILGLRNNIYCMAQLLDNSDTAEPTKAGRGASQPPTPTPASDAFQRKLEGCRFLHGYHRFMHSVGRVFSKW	soluble
MAHHHHHHMLKFFTEKANHQALKAVLCAVFVQKPLEVTLGSTYSTPYLQLPKSRALLYSCNEAARLIWSTHAAPLPADNSLEGEAEWLEWESTVLTPALTPLYTHRRITGEAEAALKKLDSTIEEHQGTVAVKGAPSSTSFLVDSVLFASLLPALCEGGLLPAAQAARVPHLVKWFQAFQAEHAELIASAFDVLSVQECGDFLRVP	soluble
MSDADPKVPHRGHELLDVLARLGGSARNAQIAQVMDVSEETVRRLVKTLAKQGKVERVHGGTYLRGSQDAPMYSGALEQQPKEKTRIAKGVLELIRDGMTLFINVGSTTTYVAEQLRERRDLTIVTNSISTVASLADHNGSRVFLAGGEVSRSERGCFGRATEDFARRFAYDVLVIGADAMSPELGVLAANPREAELTRALLGNATRVIVAADYRKFSAIAPCIAAPLEAITDLVTDAAPPDALQDALDRCGVATHLAAKSGRITTRTPPPQDVGHSNTNRKTLSFPTEVSLEHHHHHH	soluble
MGSDKIHHHHHHMTILDHKIDFAVILSVTKANPNGDPLNGNRPRQNYDGHGEISDVAIKRKIRNRLLDMEEPIFVQSDDRKADSFKSLRDRADSNPELAKMLKAKNASVDEFAKIACQEWMDVRSFGQVFAFKGSNLSVGVRGPVSIHTATSIDPIDIVSTQITKSVNSVTGDKRSSDTMGMKHRVDFGVYVFKGSINTQLAEKTGFTNEDAEKIKRALITLFENDSSSARPDGSMEVHKVYWWEHSSKLGQYSSAKVHRSLKIESKTDTPKSFDDYAVELYELDGLGVEVIDGQ	not soluble
MSLILKEGEVVFEVPDKLTVTKKDEVFYNPRMKTCRDISIAVIQAFLNLYHKRDKFYIADALAGSGIRGLRYAKELEFNGELKVFLNDINPKAYEKIINNAKLNEIENIDVFNEDANTFLSKHFRFFNVVDIDPFGSPAPYVEQAIRALVTRNGLLCLTATDTAALCGRSKKSCLRKYLAYPLFGRDCHEFALRVLVGYVMRMATKYELALKPVFCHATDHYVRVYLVTDRGAKRADKVFEMLGYVKDVNGIKIIKKFEEGYEKGFAGPLYIGNLYDKALVEEALKIAEKREFSERVLKILNAIKGESAINQVGCYDTHQIGKMLKISVPPMQDIINKLKEMGFNAVVTHYNPKGIKTDATLKNVIEAIYQCTKIREGHHHHHH	soluble
MGSDKIHHHHHHMDGKVMAGTRIEKVMANIRQRITSRSLVPGARLPSVRALAKTMQLSTSTIVEAYDRLVADGTISSRPGSGFFVAGPLAPLSLADIEPRLDRAVDPLWVSRQALDDGSALAKPGCGWLPASWMPQEALRRAMRGLARADDALLTDYGSPMGLLPLRQLLSRRLAEHGVQAGASQIMLTDSGTQAIDLLCRFLLQPGDTVVVDDPCYFNFHALLRAHRVKIVGVPYTPAGPDLPLFEQALKEHQPRLYITNSAIHNPTGARLSAVSAHRLLMLAEQPGLTIIEDDIFADFETQAAPRLAAFDGLNRVVQIGSFSKTLSASVRCGFIAAPRAWVEALTDLKIATAFGGTHFSAALVLSLLTDGSYRKHVEALRQRLAAAVPEAATRLRSIGCMPWIEPQAGMFLWCRLPEGTDAADVAQRALARQVVLAPGNVFSSSQNASGFMRFNVSQMVGPQVMTVLADALR	not soluble
GSMPRVVPDQRSKFENEEFFRKLSRECEIKYTGFRDRPHEERQTRFQNACRDGRSEIAFVATGTNLSLQFFPASWQGEQRQTPSREYVDLEREAGKVYLKAPMILNGVCVIWKGWIDLHRLDGMGCLEFDEERAQQEDALAQQ	soluble
MRILGLDLGTKTLGVALSDEMGWTAQGIETIKINEAEGDYGLSRLSELIKDYTIDKIVLGFPKNMNGTVGPRGEASQTFAKVLETTYNVPVVLWDERLTTMAAEKMLIAADVSRQKRKKVIDKMAAVMILQGYLDSLNLEHHHHHH	not soluble
MSPVEAALETLAHTMGITVIETSKLGSTLNACFHPPTQTIFIKIGLDPVTRRCAIAHELGHAHYGHNCSTPGAERQADEWAAQQLLDVGDVEAVGLECEGSAAAMAAELGVTPHLLVLWMGMYERGRIQPEKRAC	not soluble
MGSTRWDAVNKFSVENWYPHLRKHTFKSHFITLNYNDIHYLMGNIPPDYDSSKLESIFNKILSEFNNKEVFMRLSTRSPKDSKFLFEEASTIMSKDFVYWNENDNKHQQLVSFVASMLKAMKIKSGRKIIETIAQSPRVYNDLLALVSSSNQSDCTTNVILREWHDIRPDHEFRVFVSRRHRKESIVTAISQYFHFLYFDKSPADCFNFLDEEDKKAVIKKFENYVLKSVDPDVAKFLNFSSEQDDDESSDCIREYIVDLALIPVSQYHGEITDENIIEIGANTYVMVVIELNPFAPAATGSGLFNWKNDLMMLWGKASCDYPVFKYRTTPREDLQSVSLLPSNYESVIKSALIKRLETSYSNSASQKERFFSSTKPVTESSGSALLDMVTKPLEHHHHHH	soluble
